Test results as given in patent US7700573.

Molecular target: KOC1 (RNA-immunoprecipitation from NSCLC cells) (Homo sapiens) (UniProt O00425)
Test: pulldown

KOC1 (RNA-immunoprecipitation from NSCLC cells) (Homo sapiens), sequence (O00425 whole entry): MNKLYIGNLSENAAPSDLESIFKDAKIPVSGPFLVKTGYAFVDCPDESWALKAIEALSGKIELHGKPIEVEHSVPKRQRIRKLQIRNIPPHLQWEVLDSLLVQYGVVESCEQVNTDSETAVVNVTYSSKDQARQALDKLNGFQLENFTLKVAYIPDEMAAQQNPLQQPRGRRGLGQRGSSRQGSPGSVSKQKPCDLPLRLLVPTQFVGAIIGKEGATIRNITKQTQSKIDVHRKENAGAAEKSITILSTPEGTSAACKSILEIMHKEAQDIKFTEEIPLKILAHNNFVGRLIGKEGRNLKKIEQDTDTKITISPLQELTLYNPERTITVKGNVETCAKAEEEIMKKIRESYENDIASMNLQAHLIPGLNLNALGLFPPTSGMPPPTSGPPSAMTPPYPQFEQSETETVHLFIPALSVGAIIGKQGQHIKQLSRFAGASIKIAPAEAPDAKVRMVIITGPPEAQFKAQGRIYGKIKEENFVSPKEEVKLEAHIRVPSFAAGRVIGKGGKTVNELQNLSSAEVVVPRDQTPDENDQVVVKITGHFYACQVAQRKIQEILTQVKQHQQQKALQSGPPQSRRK

Row | Substance | binding signal (fold IP/input, sum of five cell lines) (RNA-IP microarray) | also measured
1 | ACTB mRNA (BC053988) | – | binding signal (fold IP/input, sum of five cell lines) (negative control): 0
2 | CCT2 mRNA (AF026166) | – | binding signal (fold IP/input, sum of five cell lines) (RNA-IP microarray, association in cell extract): 32.3
3 | GL mRNA (AJ420489) | 16 | –
4 | PKP4 mRNA (AI681111) | 12.6 | –
5 | PSMB7 mRNA (BM837906) | 16.5 | –
6 | SBP2 mRNA (AF380995) | 24 | –
7 | SLC25A3 mRNA (NM_002635) | 21.7 | –
8 | WINS1 mRNA (AA741459) | 10.9 | –
